B1: humanized 20F3 HCLB (antibody, V domains shown)
VH: QIQLVQSGSELKKPGASVKVSCKASGYTFTNYGMNWVRQAPGQDLEWMGWINTYSGEPRYADDFKGRFVFSLDKSVNTAYLQISSLKAEDTAVYYCARDYGRWYFDVWGQGTTVTVSS
VL: EIVLTQSPATLSLSPGERATLSCRASSSVSHMHWYQQKPGQAPRPWIYATSNLASGIPARFSGSGSGTDYTLTISSLEPEDFAVYYCQQWSSTPRTFGGGTKVEIKR
notes: Humanized heavy chain HC paired with humanized light chain LB
B2: humanized 20F3 HALD (antibody, V domains shown)
VH: QVQLVQSGSELKKPGASVKVSCKASGYTFTNYGMNWVRQAPGQGLEWMGWINTYSGEPRYADDFKGRFVFSLDTSVSTAYLQISSLKAEDTAVYYCARDYGRWYFDVWGQGTTVTVSS
VL: QIVLSQSPATLSLSPGERATMSCRASSSVSHMHWYQQKPGQAPRPWIYATSNLASGVPARFSGSGSGTDYTLTISSLEPEDFAVYYCQQWSSTPRTFGGGTKVEIKR
notes: Humanized heavy chain HA paired with humanized light chain LD
B3: humanized 20F3 HELA (antibody, V domains shown)
VH: QIQLVQSGSELKKPGASVKVSCKASGYTFTNYGMNWVKQAPGQDLKWMGWINTYSGEPRYADDFKGRFAFSLDKSVNTAYLQISSLKAEDTAVYFCARDYGRWYFDVWGQGTTVTVSS
VL: EIVLTQSPATLSLSPGERATLSCRASSSVSHMHWYQQKPGQAPRLLIYATSNLASGIPARFSGSGSGTDFTLTISSLEPEDFAVYYCQQWSSTPRTFGGGTKVEIKR
notes: Humanized heavy chain HE paired with humanized light chain LA
B4: humanized 20F3 HBLB (antibody, V domains shown)
VH: QIQLVQSGSELKKPGASVKVSCKASGYTFTNYGMNWVRQAPGQGLEWMGWINTYSGEPRYADDFKGRFVFSLDKSVSTAYLQISSLKAEDTAVYYCARDYGRWYFDVWGQGTTVTVSS
VL: EIVLTQSPATLSLSPGERATLSCRASSSVSHMHWYQQKPGQAPRPWIYATSNLASGIPARFSGSGSGTDYTLTISSLEPEDFAVYYCQQWSSTPRTFGGGTKVEIKR
notes: Humanized heavy chain HB paired with humanized light chain LB
B5: humanized 20F3 HCLC (antibody, V domains shown)
VH: QIQLVQSGSELKKPGASVKVSCKASGYTFTNYGMNWVRQAPGQDLEWMGWINTYSGEPRYADDFKGRFVFSLDKSVNTAYLQISSLKAEDTAVYYCARDYGRWYFDVWGQGTTVTVSS
VL: QIVLSQSPATLSLSPGERATLSCRASSSVSHMHWYQQKPGQAPRPWIYATSNLASGIPARFSGSGSGTDYTLTISSLEPEDFAVYYCQQWSSTPRTFGGGTKVEIKR
notes: Humanized heavy chain HC paired with humanized light chain LC
B6: humanized 20F3 HELC (antibody, V domains shown)
VH: QIQLVQSGSELKKPGASVKVSCKASGYTFTNYGMNWVKQAPGQDLKWMGWINTYSGEPRYADDFKGRFAFSLDKSVNTAYLQISSLKAEDTAVYFCARDYGRWYFDVWGQGTTVTVSS
VL: QIVLSQSPATLSLSPGERATLSCRASSSVSHMHWYQQKPGQAPRPWIYATSNLASGIPARFSGSGSGTDYTLTISSLEPEDFAVYYCQQWSSTPRTFGGGTKVEIKR
notes: Humanized heavy chain HE paired with humanized light chain LC
B7: humanized 20F3 HELD (antibody, V domains shown)
VH: QIQLVQSGSELKKPGASVKVSCKASGYTFTNYGMNWVKQAPGQDLKWMGWINTYSGEPRYADDFKGRFAFSLDKSVNTAYLQISSLKAEDTAVYFCARDYGRWYFDVWGQGTTVTVSS
VL: QIVLSQSPATLSLSPGERATMSCRASSSVSHMHWYQQKPGQAPRPWIYATSNLASGVPARFSGSGSGTDYTLTISSLEPEDFAVYYCQQWSSTPRTFGGGTKVEIKR
notes: Humanized heavy chain HE paired with humanized light chain LD
B8: humanized 20F3 HCLD (antibody, V domains shown)
VH: QIQLVQSGSELKKPGASVKVSCKASGYTFTNYGMNWVRQAPGQDLEWMGWINTYSGEPRYADDFKGRFVFSLDKSVNTAYLQISSLKAEDTAVYYCARDYGRWYFDVWGQGTTVTVSS
VL: QIVLSQSPATLSLSPGERATMSCRASSSVSHMHWYQQKPGQAPRPWIYATSNLASGVPARFSGSGSGTDYTLTISSLEPEDFAVYYCQQWSSTPRTFGGGTKVEIKR
notes: Humanized heavy chain HC paired with humanized light chain LD
B9: humanized 20F3 HDLC (antibody, V domains shown)
VH: QIQLVQSGSELKKPGASVKVSCKASGYTFTNYGMNWVRQAPGQDLKWMGWINTYSGEPRYADDFKGRFVFSLDKSVNTAYLQISSLKAEDTAVYYCARDYGRWYFDVWGQGTTVTVSS
VL: QIVLSQSPATLSLSPGERATLSCRASSSVSHMHWYQQKPGQAPRPWIYATSNLASGIPARFSGSGSGTDYTLTISSLEPEDFAVYYCQQWSSTPRTFGGGTKVEIKR
notes: Humanized heavy chain HD paired with humanized light chain LC
B10: humanized 20F3 HELB (antibody, V domains shown)
VH: QIQLVQSGSELKKPGASVKVSCKASGYTFTNYGMNWVKQAPGQDLKWMGWINTYSGEPRYADDFKGRFAFSLDKSVNTAYLQISSLKAEDTAVYFCARDYGRWYFDVWGQGTTVTVSS
VL: EIVLTQSPATLSLSPGERATLSCRASSSVSHMHWYQQKPGQAPRPWIYATSNLASGIPARFSGSGSGTDYTLTISSLEPEDFAVYYCQQWSSTPRTFGGGTKVEIKR
notes: Humanized heavy chain HE paired with humanized light chain LB
B11: humanized 20F3 HBLC (antibody, V domains shown)
VH: QIQLVQSGSELKKPGASVKVSCKASGYTFTNYGMNWVRQAPGQGLEWMGWINTYSGEPRYADDFKGRFVFSLDKSVSTAYLQISSLKAEDTAVYYCARDYGRWYFDVWGQGTTVTVSS
VL: QIVLSQSPATLSLSPGERATLSCRASSSVSHMHWYQQKPGQAPRPWIYATSNLASGIPARFSGSGSGTDYTLTISSLEPEDFAVYYCQQWSSTPRTFGGGTKVEIKR
notes: Humanized heavy chain HB paired with humanized light chain LC
B12: humanized 20F3 HBLA (antibody, V domains shown)
VH: QIQLVQSGSELKKPGASVKVSCKASGYTFTNYGMNWVRQAPGQGLEWMGWINTYSGEPRYADDFKGRFVFSLDKSVSTAYLQISSLKAEDTAVYYCARDYGRWYFDVWGQGTTVTVSS
VL: EIVLTQSPATLSLSPGERATLSCRASSSVSHMHWYQQKPGQAPRLLIYATSNLASGIPARFSGSGSGTDFTLTISSLEPEDFAVYYCQQWSSTPRTFGGGTKVEIKR
notes: Humanized heavy chain HB paired with humanized light chain LA
B13: humanized 20F3 HALA (antibody, V domains shown)
VH: QVQLVQSGSELKKPGASVKVSCKASGYTFTNYGMNWVRQAPGQGLEWMGWINTYSGEPRYADDFKGRFVFSLDTSVSTAYLQISSLKAEDTAVYYCARDYGRWYFDVWGQGTTVTVSS
VL: EIVLTQSPATLSLSPGERATLSCRASSSVSHMHWYQQKPGQAPRLLIYATSNLASGIPARFSGSGSGTDFTLTISSLEPEDFAVYYCQQWSSTPRTFGGGTKVEIKR
notes: Humanized heavy chain HA paired with humanized light chain LA
B14: humanized 20F3 HBLD (antibody, V domains shown)
VH: QIQLVQSGSELKKPGASVKVSCKASGYTFTNYGMNWVRQAPGQGLEWMGWINTYSGEPRYADDFKGRFVFSLDKSVSTAYLQISSLKAEDTAVYYCARDYGRWYFDVWGQGTTVTVSS
VL: QIVLSQSPATLSLSPGERATMSCRASSSVSHMHWYQQKPGQAPRPWIYATSNLASGVPARFSGSGSGTDYTLTISSLEPEDFAVYYCQQWSSTPRTFGGGTKVEIKR
notes: Humanized heavy chain HB paired with humanized light chain LD
B15: humanized 20F3 HALC (antibody, V domains shown)
VH: QVQLVQSGSELKKPGASVKVSCKASGYTFTNYGMNWVRQAPGQGLEWMGWINTYSGEPRYADDFKGRFVFSLDTSVSTAYLQISSLKAEDTAVYYCARDYGRWYFDVWGQGTTVTVSS
VL: QIVLSQSPATLSLSPGERATLSCRASSSVSHMHWYQQKPGQAPRPWIYATSNLASGIPARFSGSGSGTDYTLTISSLEPEDFAVYYCQQWSSTPRTFGGGTKVEIKR
notes: Humanized heavy chain HA paired with humanized light chain LC
B16: humanized 20F3 HDLB (antibody, V domains shown)
VH: QIQLVQSGSELKKPGASVKVSCKASGYTFTNYGMNWVRQAPGQDLKWMGWINTYSGEPRYADDFKGRFVFSLDKSVNTAYLQISSLKAEDTAVYYCARDYGRWYFDVWGQGTTVTVSS
VL: EIVLTQSPATLSLSPGERATLSCRASSSVSHMHWYQQKPGQAPRPWIYATSNLASGIPARFSGSGSGTDYTLTISSLEPEDFAVYYCQQWSSTPRTFGGGTKVEIKR
notes: Humanized heavy chain HD paired with humanized light chain LB
B17: humanized 20F3 HCLA (antibody, V domains shown)
VH: QIQLVQSGSELKKPGASVKVSCKASGYTFTNYGMNWVRQAPGQDLEWMGWINTYSGEPRYADDFKGRFVFSLDKSVNTAYLQISSLKAEDTAVYYCARDYGRWYFDVWGQGTTVTVSS
VL: EIVLTQSPATLSLSPGERATLSCRASSSVSHMHWYQQKPGQAPRLLIYATSNLASGIPARFSGSGSGTDFTLTISSLEPEDFAVYYCQQWSSTPRTFGGGTKVEIKR
notes: Humanized heavy chain HC paired with humanized light chain LA
B18: humanized 20F3 HDLA (antibody, V domains shown)
VH: QIQLVQSGSELKKPGASVKVSCKASGYTFTNYGMNWVRQAPGQDLKWMGWINTYSGEPRYADDFKGRFVFSLDKSVNTAYLQISSLKAEDTAVYYCARDYGRWYFDVWGQGTTVTVSS
VL: EIVLTQSPATLSLSPGERATLSCRASSSVSHMHWYQQKPGQAPRLLIYATSNLASGIPARFSGSGSGTDFTLTISSLEPEDFAVYYCQQWSSTPRTFGGGTKVEIKR
notes: Humanized heavy chain HD paired with humanized light chain LA
B19: humanized 20F3 HALB (antibody, V domains shown)
VH: QVQLVQSGSELKKPGASVKVSCKASGYTFTNYGMNWVRQAPGQGLEWMGWINTYSGEPRYADDFKGRFVFSLDTSVSTAYLQISSLKAEDTAVYYCARDYGRWYFDVWGQGTTVTVSS
VL: EIVLTQSPATLSLSPGERATLSCRASSSVSHMHWYQQKPGQAPRPWIYATSNLASGIPARFSGSGSGTDYTLTISSLEPEDFAVYYCQQWSSTPRTFGGGTKVEIKR
notes: Humanized heavy chain HA paired with humanized light chain LB
B20: murine 20F3 antibody (antibody, mouse IgG1, V domains shown)
VH: QIQLVQSGPELKKPGETVKISCKASGYTFTNYGMNWVKQAPGKDLKWMGWINTYSGEPRYADDFKGRFAFSLEKSANTAYLQINNLKNEDMATYFCARDYGRWYFDVWGTGTTVTVSS
VL: QIVLSQSPAILSASPGEKVTMTCRASSSVSHMHWYQQKPGSSPKPWIYATSNLASGVPARFSGSGSGTSYSLTISRVEAEDAATYYCQQWSSTPRTFGGGTKLEIKR
notes: also called mouse 20F3

Here are results for 20 molecules from patent US20180169257A1 (Seagen, published 2018).

This assay has as its target T1, human NTB-A (human, UniProt Q96DU3 22-332).
T1 construct: Endogenous NTB-A on antigen-positive Ramos cells (also on MM.1R, WIL2-S and Raji cells and normal human T and B lymphocytes); also called SLAMF6; human NTB-A isoform-1
T1 sequence: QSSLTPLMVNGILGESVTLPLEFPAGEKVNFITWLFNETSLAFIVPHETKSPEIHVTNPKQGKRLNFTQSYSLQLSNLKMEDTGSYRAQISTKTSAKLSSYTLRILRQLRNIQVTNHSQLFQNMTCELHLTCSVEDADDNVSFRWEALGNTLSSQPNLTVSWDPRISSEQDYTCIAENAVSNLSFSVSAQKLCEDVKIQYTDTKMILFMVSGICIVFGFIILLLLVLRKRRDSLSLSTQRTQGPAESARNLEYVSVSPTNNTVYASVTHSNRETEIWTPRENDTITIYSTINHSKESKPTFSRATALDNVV
As to the kind of experiment: competition flow cytometry on Ramos cells; competitor 5 nM mouse 20F3-Alexa Fluor 647. How it is done:
Antigen positive Ramos cells were plated at 1×10⁵ cells per well in a 96 well V-bottom plate (Thermo Scientific, Rochester, N.Y.). Fifty-fold serial dilutions of antibodies were prepared in FACs buffer (PBS+2% fetal bovine serum) and were added to the cells in duplicate. The antibody solutions were incubated with cells for 1 hour on ice, protected from light. The cells were washed twice with FACs buffer and analyzed on the LSRII flow cytometer (BD BioSciences, San Jose, Calif.). EC50 values were determined with GraphPad Prism software (La Jolla, Calif.).
In turn, B1 gave an EC50 of 5 nM. Molecule B2 had an EC50 of 12 nM. With B3, the EC50 came out at 31 nM. With B4 the figure was 6 nM; with B5, 8 nM.

For the molecule B6, it took 10 nM to reach a half-maximal effect (EC50). With B7 the figure was 2 nM.

For the molecule B8, the EC50 stood at 5 nM. With B9 the figure was 6 nM; with B10, 4 nM; with B11, 12 nM. As for B12, the figure is 71 nM; as for B13, 147 nM; as for B14, 4 nM. With B15 the figure was 27 nM; with B16, 3 nM; with B17, 25 nM. In turn, B18 returned an EC50 of 15 nM. Compared with the last molecule, the EC50 is about 1.7-fold lower.

Take B19: the EC50 was found to be 12 nM. In turn, B20 returned an EC50 of 2 nM.
